The source of these data is a protein production outcome set (Wang et al. 2014).

This data set can be described thus: label from the status in PepcDB records.
As for “MISGNTINHKNNMAGLKSLVKDTALYGLSSMVGRFLNYLLVPLYTAVLPAASGGYGVVTNVYAWAGLIMVLLTFGMETGFFRFANKSEEDPVKVYANSLISVGGISLIFAILCLTFLQPVSHLLEYGDHPDFIGMMIIVMALDAFLCIPFAYLRFKKRPIKFVAIKFVSIIANIVLNLFFLLLCPWLHEHFPAWVDWFYNPTYLVGYIFVSNLITTCLQLFCLIPELRGFAYRVDKQLLKRMLIYSFPILIFGLVGILNQTVDKIIYPFLFADRQEGLVQLGIYGAATKIAMVMAMFTQAFRYAYEPFVFGKQKEGDNRRMYAQAMKYFLIFAMFAFLVVMFYLDLLRYMVAPDYWAGLSVVAIVIGAEIFKGIYFNLSFWYKLIDETRWGAYFSIVGCVIIVGMNVMLVPTYGFVASAWASVAGYAVITILSYWIGQKKYPIHYDLKHLGTYVLFTAVLYVIGEWVPIENIVLRLAFRTVLLLIFMAYVVRKDLPLSQIPVINRIIKKK”, the protein production result is “failed”. Next, “MISLPYLQRFALSGQVALVTGSARGLGLRIAQALAGSGAHVLLNGRDAHAVEAAVSDLRQQGLRASALPFDVSDEQATEQAFARIDAEHGRLDILVNNVGARNRKPLAETSPAEIRAMMDTNLVAGILLARLAAQRMVRQRYGRLIAITSVAGELARANDAVYPAAKQGLTGMMRALAVEFGRHGITSNAIAPGAFATETNAAMANDPQAGAAMAARNPTGRWGDPEEIAGAAVFLASPAASYVNGHVLVVDGGLSVQF”: “failed”; “MISRHLQNNLMSVDPASSQAMELSDVTLIEGVGNEVMVVAGVVVLILALVLAWLSTYVADSGSNQLLGAIVSAGDTSVLHLGHVDHLVAGQGNPEPTELPHPSEGNDEKAEEAGEGRGDSTGEAGAGGGVEPSLEHLLDIQGLPKRQAGAGSSSPEAPLRSEDSTCLPPSPGLITVRLKFLNDTEELAVARPEDTVGALKSKYFPGQESQMKLIYQGRLLQDPARTLRSLNITDNCVIHCHRSPPGSAVPGPSASLAPSATEPPSLGVNVGSLMVPVFVVLLGVVWYFRINYRQFFTAPATVSLVGVTVFFSFLVFGMYGR”: “failed”. Next, “MISRNLKIYFRDRTAVFMSLLTVLIIIGLYAIFLGNNMEEMFKQASGKTVGIQELVNTWVIAGILSITPVTVSLAVFSLKVHDEELSIARSFAITSASRWRIVISYIVSGLVASFLLSVITLFVGEMYIWLTGGEFLPFESWIRLIGIILINVLCCSSIMFFIASLVKKASAFSSVSTIVGTVIGFIAGIYLPIGSLPAAVQTAMKCFPFTYGASTIREIMTKEPLKEVFAGNTGAMDATKEMIGITIYWGDKTVTTGLSLLILSAFAVVFGVLSVILMKRQTK”: “failed”; “MISSLTTIISTGTNLGSGTDDDIYFGIHLNNGQKKEWLLDKETYNDFENGATDEYYLYINDMDFLPTMVDKVWVRKNSTGSFAGNWFFKALRIDANGNDVLSVSPNEWITDLEHHHHHH”: “not failed”.

For “MISSMNFWRCRCSKDDAEQSMLYSYNNGFLGFSAKLNSTQAASLAKLNQVITVFKSKSLKLHTTRSWDFLGLAVDNARRTPPPQLAYGSDIVVGIFDTGLFISLKLLLLSILGIWPESESFRETPEAKPIPSSWNGKCVGGEDFDPSVHCNRKLIGARFYLRGFEETYGTIDFTRDPEYRSPRDYLGHGTHTASTAVGSVVRNVSGFFGLGRGTARGGAPLARLAVFKTCWGKDLEGVCTEADILAAFDDAIHDGVHVISASFGYSPPLSPFFESSADIGAFHAAERGISVVFSTGNDGPDPGVVQNVAPWAVSVAASTVDRSFPTRIVIDGSFTLTGQSLISQEITGTLALATTYFNGGVCKWENWMKKLANETIILCFSTLGPVQFIEEAQAAAIRANALALIFAASPTRQLAEEVDMIPTVRVDILHGTRIRNYLARSPTVPMVKIGPSKTVIGETTAPSVAYFSSRGPSSLSPDILKPDITAPGIGILAAWPPRTPPTLLPGDHRSIEWNFQSGTSMSCPHVAGVMALLQSAHPDWSPSAIRSAIMTTAYTRDTSYDLILSGGSMKSTDPFDIGAGHINPLKAMDPGLVYNTRTDDYVLFMCNIGYTDQEIKSMVLHPEPSTTCLPSHSYRTNADFNYPSITIPSLRLTRTIKRTVSNVGPNKNTVYFVDIIRPVGVEVLIWPRILVFSKCQQEHSYYVTFKPTEIFSGRYVFGEIMWTNGLHRVRSPVVVFLSNAGFLASS”, the protein production entry is “failed”. Regarding “MISTTTVSDLYITFGLIGVFLAGMIAVLYATNRKSDSFSDYAVGGRSYGPWFIAMCYTNSWWPGATFTAFFALSVGGALGFYGMVYATLGVTAMYLMANRAWTWGKRFNLTTQPDLLGMRFNSPVVKRIASIIGIISVFPWVVMGIQALATLFQFASFGRWGVTTCLLVGVAVILIRQYWTVSMGMRGLIMTDMYQGLIAYVLCAALCIFLMFGAQASFSNLSQLPASMLVIPGGTGSTYGPMYMFSLIFTGVIGSMCWPMSFQRIYTASGVRSVKKGTLLTILLVGGFYGILMLFAAAISQDPNVAAHPQHGWFLSLFDIGGPWLLAVAIMIVLAASIGHVDGCVQVCGTQFANDLATWNTPRSDREKTILAKAGMVVFIAAASLLAYLTFDYARLQLLAQISYQGIIQLAVPLFFGVFSRRGNKQGAIVGMLVGIVIAIVLTTIYPDDIPGLGSLTSGIVGLIFNAGIFVACAVAIKPSAEEVRRVDELFAMAAPQRHPAGVAPVMS”, the protein production result is listed as “failed”. For “MISVFDIYKIGVGPSSSHTVGPMKAGKEFIDDLRAMGKLRDITKITVDVYGSLSLTGKGHHTDIAIIMGLAGNSPEKVDIDSIPGFIARVEETERLPVGMHCHTVSFPREGGMNFHKTNLELHENGMQIHAWIDDEKVYSKTYYSIGGGFIVDEENFGK”, the protein production result was “not failed”.

For “MISVGKGKIMITPDHNIIKPIAIVLPQFHPIRENNLWWGEGFTEWTNVVKGRPRFRGHYQPHLPKDLGYYDLRLPETRKAQAALATKYGIYGFCYYHYWFNGRRILESPVDAMLESGEPDFPFMLCWANENWTRNWDGSYNKVLLEQKYSKEDFVNHARHLIRYFKDDRYIKIDGRPVFAIYKDDIGEDIEKYLLLFRNELLKNSINVFLCRFERNIGTSRDLNRAFQVFDAGIEFQPLARQFSYLINYNNRLSRRIYKTLKKHFCFCKNIDDVYVYSHLVDNDLKYDFQQGWPIFPGVCPGWDNSARRRDTTAIIFDKSTPEIFKLWVREKIRITDWNLLPERFLFVNAWNEWAEGNHLEPCEKWGTQYLAALQAGINEM”, the protein production result is “failed”. Next, “MISVTAYEWIGLFIGMIIGGLAEAWGISNPEVLIRLGKWEDRLFIGCIAIAIGAGAIVLYGLSALGVSFHWGIKPDYVIGVALGGIIFGTGIAISGYVPGTVWMALGEGRRDAIYAVLGGLLGAASWTLIYQTSFGHWLTTYLNFGQIYFGGKVGTDLKLGFIIAIVWAIIMFVIAYTLPRYRKGKSCAYLSTHKNYKLDAEEEKEYIETANFLMEGTSMPIGKNNLPEKVNYHWTVSSKLFGVTMLSVGIIIGLTVVLEMFLHQIFGESTTYSWIVAQIWLPAGYWQYSTIVVHTIGWEPFSDIGTLFGAFLASIFFTRRFQAFSNVIPPSWKERFGNSQIKRAAGAFSGAYLMLLGARMADGCASGHILSGDLQMAVSSLEFFIFVVIFLLLVAHIIYRR”: “failed”; “MISVVGAGGKTSLLFWLAELLQASGRRVLITTTTHMFMPTSHWPVVFCRDPAMLPHASLTSPISFCFHSWKANQGKVQGFTPEAIDALVQRPECDVILIEADGSRGMPLKAPDEHEPCIPKSSCCVIAVMGGHTLGAKVSTENVHRWSQFADITGLTPDATLQLSDLVALVRHPQGAFKNVPQGCRRVWFINRFSQCENAIAQSELLQPLQQHDVEAIWLGDIQEHPAIARRFVNLEHHHHHH”: “not failed”; “MISVVIPLFNKAPHIVRAVESVLEQSSPADEIIVVDDGSTDGGGELLLPYVAKHGVRLIRQENAGVSVARNHGVNLAASDYVAFLDADDFWLPNHIATLRRLIDNYPEASLFSTALIIERDGRQWRSKSTYSDGWEGVVQDFFTEYLRRFALVSSTTSCVRKKDFCSIGGFPVGVKYGEDFICWMKMALFYRVAHAEVVTAVYCLDAVNRTDQLQETDVLAPLQFIAKLLQSNELDNAQRVGLAQLFDHISFSTGARFRINSNLNGVNAIRNLSWEMGHYRVSLLMSALRFTPSLLLQAAKRFRYRQVSVV”: “failed”. Next, “MITIENSKFKAGIAERGAELQSLVNKADNYEYVWTGDKTFWNRHAPILFPSIGKSNQDQYRLGAKTYPMSQHGFARDYDFDVSDKSDSAVTFTQHQNAETLKKFPFEYTLAVTYMLTDGGLSVHYTVTNDDSKSMPFALGFHPAFNVGLKADGSFDDYDLTVEPLNSPLQRFGIGPVPFRNGDVEDIPGAEGNRLPLTHDLLDGGLVILANSEIAKATLASPHHDHSITLDISDFPYLTIWSPEHKKAPFIAVEPFDGLPDQAGEPTDWYTKLGNTTLSAGANKQLALKVELHLEHHHHHH”: “failed”; “MITIRNKIGQMLIMGFHGSELHDNSPVAQWLSNDGLGGVLLFDKDLSTGIYGKNLRNQAQIKQLIRQLNRYASMISGGNDNLPLFTAIDYEGGVVDRLSKIEGCPPTMKARELAKLSSDDFDEEVTQMAMTLQSLGFNLNFAPVVDLNLNAHAGIIGNLGRSFSSNPEVTIRLAKQFVDVFSRYGIACAYKHFPGHGSATGDTHEGFVDVTETFQTDELIPYRSLLKDLSNPFMVMTAHVINKHLDSKGLPATLSYDVLTLLLRQSIGYDGVIISDDLQMHAISNHYSLEDALCLTINAGADMVIFANQLGTITPPEVIDVIEKLVIDKQIPYQRIDEAYRRIVRLKQQIICSELINT”: “failed”. Turning to “MITKDVKEQLIQVSGPENFDDSNAGRLVYSYDATPQYQSMPDAVIAPRNTDEISRILTICSEHRVPIVPRGSGTNLCGGTCPTEGGLVLLFKHMNQILEIDEENLTATVQPGVITLDMIRAVESKGLFYPPDPSSMKISTIGGNINENSGGLRGLKYGVTRDYVIGLEVVLANGDIIRTGGKLAKDVAGYDLTRLFVGSEGTLGIVTEAIVKLVPKPETKKTLLALYENIDAAAQTVSDIIAAKIIPATLEFLDQPTLLVIEDYAKIGLPTSAKAVLLIEQDGPFETVERDMEKIEAICKKGDAVSVQTAQTEEEAFALTEARRSALSALARLKPTTILEDATVPRSEIANMVKAINDIAAKYDISICTFGHAGDGNLHPTCTTDIRNKDEMERVEQAFAEIFEKAIELGGTITGEHGVGEMKAPYLEMKLKKEGIDAMKALKAAFDPRNILNPGKMFAKDARKRVVAER”, the protein production result is on record as “failed”. The value for “MITKFPPQWQEKLDQVAFTHLTPIQEQAFQPIVDGKNFLGISPTGTGKTLAYVFPNLLALTPKKSQQLLILAPNTELAGQIFEVTKDWAQPLGLTAQLFISGTSQKRQIERLKKGPEILIGTPGRIFELIKLKKIKMMSVNTIVLDEYDELLGDSQYDFVQKISHYVPRDHQMVYMSATNKVDQTSLAPNTFCIDLSEQTNDAIQHFYLMVDKRERTDLLRKFTNIPHFRALVFFNSLSDLGATEERLQYNGAAAVSLASDINVKFRKTILEKFKSHQLSLLLATDLVARGIDIDNLDYVIHFDVARDKENYTHRAGRTGRMGKSGIVITFVSHPEDLKKLKKFAKVSEISLKNQQLHFIN” was “failed”; that for “MITLNAWYVTWTELYKKKTVKMTTIYKNHSYYNSRVKNSIGKMYLQDIKTYHVQKFLNDLIDSGLAHGTVSNIRFMLSDMFDKAVLSEYIRKNPCIGVEMPKEVKKERLEHHHHHH” was “failed”; that for “MITNQRIARLNAWGAHGFTATGVVLAFLATIALFNNEPKACLLWLGAALIVDGVDGSLARKVNTTSVLPHFDGSVLDLVIDYLTYVFIPALFIYRYIPVPDYTLLLSVSVILVSSLFCFCNVDMKSKDNYFQGFPAAWNVVALCLYILSPAPWLTFITIIALALLTMTRMKFLHPFRVRRFMPLNIAVTTVWLLASALLIINHPHNGPLVMGLWLAMSAYFLGICIWRTSLEWLGRLKA” was “failed”.
